For three molecules, increase of [Ca2+]i in Fura-2-loaded CHO/CXCR3A cells stimulated with 3 ng/mL CXCL10 (no GAG), increase of [Ca2+]i in Fura-2-loaded CHO/CXCR3A cells stimulated with 3 ng/mL CXCL11 (no GAG) and increase of [Ca2+]i in Fura-2-loaded CHO/CXCR3A cells stimulated with 1 µg/mL CXCL9 (no GAG) results are on record in paper PMC5536003.

For this assay, the target named is CXC chemokine receptor (CXCR)3, CXCR3A (UniProt P49682).
Chain of UniProt P49682 (P49682 whole entry): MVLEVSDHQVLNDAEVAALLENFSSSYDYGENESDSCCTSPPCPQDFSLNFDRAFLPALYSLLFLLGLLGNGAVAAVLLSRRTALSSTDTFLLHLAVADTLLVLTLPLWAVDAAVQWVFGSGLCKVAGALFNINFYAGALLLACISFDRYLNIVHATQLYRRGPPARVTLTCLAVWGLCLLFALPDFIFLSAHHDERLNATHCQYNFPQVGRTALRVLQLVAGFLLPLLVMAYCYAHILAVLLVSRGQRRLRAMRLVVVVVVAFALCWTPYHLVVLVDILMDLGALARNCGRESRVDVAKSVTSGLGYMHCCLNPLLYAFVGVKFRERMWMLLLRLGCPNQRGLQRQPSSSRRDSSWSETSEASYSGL

On to “CXC chemokine ligand (CXCL)10 (from UniProt P02778 22-98)”, for which the increase of [Ca2+]i in Fura-2-loaded CHO/CXCR3A cells stimulated with 3 ng/mL CXCL10 (no GAG) was 107 nM.

B1: CXC chemokine ligand (CXCL)11 (ligand)
chain: FPMFKRGRCLCIGPGVKAVKVADIEKASIMYPSNNCDKIEVIITLKENKGQRCLNPKSKQARLIIKKVERKNF
The molecule B1 gave an increase of [Ca2+]i in Fura-2-loaded CHO/CXCR3A cells stimulated with 3 ng/mL CXCL11 (no GAG) of 304 nM.

B2: CXC chemokine ligand (CXCL)9 (ligand)
chain: TPVVRKGRCSCISTNQGTIHLQSLKDLKQFAPSPSCEKIEIIATLKNGVQTCLNPDSADVKELIKKWEKQVSQKKKQKNGKKHQKKKVLKVRKSQRSRQKKTT
The molecule B2 returned an increase of [Ca2+]i in Fura-2-loaded CHO/CXCR3A cells stimulated with 1 µg/mL CXCL9 (no GAG) of 598 nM.
